Source: patent publication US20260191905A1 (MODERNATX, published 2026)
Values belong to the binder of their own block, whether it stands above or below them.

Legend:
[1] = target: T1, human GPC3 on HepG2 cells (human, UniProt P51654 25-554); experiment: FACS, phage-displayed clone on HepG2, well B4; same clone on A-431 (no GPC3): 1.12%
T1 construct: whole, on cells

[2] = target: T2, human GPC3 recombinant protein (human, UniProt P51654 25-559); experiment: SPR (Biacore) off-rate screen, periplasmic extract over human GPC3 on CM5; R0 38.8
T2 construct: also called huGPC3; Human GPC3 protein
Method: (§1) Human GPC3 protein in acetate buffer, pH 5.0, was immobilized in a sensor chip CM5 (GE Healthcare; Cat. Nr. BR-1005-30; Lot. Nr.10245232) and successful immobilization was confirmed by using a commercially available human GPC3 antibody (R&D cat. nr. MAB2119) and the anti-GPC3-VHH-Fc (both at 10 μg/mL). Periplasmic extracts from the MP were diluted in Biacore Buffer (0.01 M HEPES pH 7.4, 0.15 M NaCl, 3 mM EDTA, 0.05% P20) and injected over 2 minutes at 30 μL/min. 10 μl of 10 mM NaOH/1M NaCl were injected between samples and off-rates were measured over 5 minutes. Off-rate ([…]) were calculated using BIACORE software 1:1 interaction Langmuir binding model.

[3] = target: T1, human GPC3 on HepG2 cells; experiment: FACS, periplasmic extract 1:5 + anti-c-myc + GAM-APC on HepG2, well B4; same on A-431: 873.16
[4] = target: T1, human GPC3 on HepG2 cells; experiment: FACS, periplasmic extract 1:5 + anti-c-myc + GAM-APC on HepG2, well B4; same on A-431: 0.54%
[5] = target: T1, human GPC3 on HepG2 cells; experiment: FACS, phage-displayed clone on HepG2, well B4; same clone on A-431 (no GPC3): 1095.02
[6] = target: T2, human GPC3 recombinant protein; experiment: SPR (Biacore) off-rate screen, periplasmic extract over human GPC3 on CM5; R0 40.0
Method: as §1

[7] = target: T2, human GPC3 recombinant protein; experiment: SPR (Biacore) off-rate screen, periplasmic extract over human GPC3 on CM5; R0 36.0
Method: as §1

[8] = target: T2, human GPC3 recombinant protein; experiment: SPR (Biacore) off-rate screen, periplasmic extract over human GPC3 on CM5; R0 34.4
Method: as §1

[9] = target: T2, human GPC3 recombinant protein; experiment: SPR (Biacore) off-rate screen, periplasmic extract over human GPC3 on CM5; R0 48.2
Method: as §1

[10] = target: T2, human GPC3 recombinant protein; experiment: SPR epitope binning on human GPC3
Method: The 19 VHH-His tagged domains were then evaluated for epitope-binding site. All VHHs were injected one at a time to evaluate the epitope binding site for each VHH domain. […] Human GPC3 was injected followed by an off rate wash for 4 minutes. No binding is observed if the VHH binds at the same epitope as VHH2, while a second binding event is observed if the VHH binds at a different epitope. All VHHs were binned into two groups based on the epitopes. VHH2 and VHH3 bind the same epitope and all other VHs bind the second epitope (FIG. 19).

[11] = target: T2, human GPC3 recombinant protein; experiment: SPR (Biacore), summary table; Chi2 0.465; Profile 'Very good'; FIG. 18 prints 6.01E-09
[12] = target: T2, human GPC3 recombinant protein; experiment: SPR (Biacore), VHH-His over human GPC3 on CM5; fit 197.5 - 17.34 nM; Rmax 10.9 RU; Chi2 0.465
Method: (§2) Affinities of the 19 VHH-His tagged domains were then determined by BiaCore assay. Human GPC3 protein (Sino biological cat. nr. 10088-H08H-500) was immobilized on CM5 sensor chip (GE Healthcare) as antigen. Purified VHH-His tagged domains were diluted in BiaCore buffer (0.01 M HEPES pH 7.4, 0.15 M NaCl, 3 mM EDTA, 0.05% P20) to 500 nM and injected over 2 minutes at […] followed by a half dilution series to 7.8 nM. 10 μl of 10 mM NaOH/1M NaCl were injected between samples and then off-rate wash was 5 minutes.

[13] = target: T2, human GPC3 recombinant protein; experiment: SPR (Biacore) off-rate screen, periplasmic extract over human GPC3 on CM5; R0 26.5
Method: as §1

[14] = target: T2, human GPC3 recombinant protein; experiment: SPR (Biacore), VHH-His over human GPC3 on CM5; fit 197.5 - 17.34 nM; Rmax 10.9 RU; Chi2 0.466
Method: as §2

[15] = target: T2, human GPC3 recombinant protein; experiment: SPR (Biacore), summary table; Chi2 0.466; Profile 'Good'
[16] = target: T2, human GPC3 recombinant protein; experiment: SPR (Biacore) off-rate screen, periplasmic extract over human GPC3 on CM5; R0 46.9
Method: as §1

[17] = target: T1, human GPC3 on HepG2 cells; experiment: FACS, phage-displayed clone on HepG2
Method: Binding of phage with surface expressed VHH domains to HepG2 cells was assessed using FACS. […] The cell suspension was distributed throughout at 96-well, U-bottom plate (85 μL/well) and incubated with phage (15 μL) on ice for 60 minutes with shaking.

[18] = target: T2, human GPC3 recombinant protein; experiment: SPR (Biacore) off-rate screen, periplasmic extract over human GPC3 on CM5; R0 29.7
Method: as §1

[19] = target: T2, human GPC3 recombinant protein; experiment: SPR (Biacore) off-rate screen, periplasmic extract over human GPC3 on CM5; R0 61.6
Method: as §1

[20] = target: T2, human GPC3 recombinant protein; experiment: SPR (Biacore), VHH-His over human GPC3 on CM5; fit 62.5 - 7.8 nM; Rmax 22.5 RU; Chi2 0.207
Method: as §2

[21] = target: T1, human GPC3 on HepG2 cells; experiment: FACS, periplasmic extract 1:5 + anti-c-myc + GAM-APC on HepG2, well E4; same on A-431: 0.25%
[22] = target: T1, human GPC3 on HepG2 cells; experiment: FACS, phage-displayed clone on HepG2, well E4; same clone on A-431 (no GPC3): 2.08%
[23] = target: T1, human GPC3 on HepG2 cells; experiment: FACS, phage-displayed clone on HepG2, well E4; same clone on A-431 (no GPC3): 1163.66
[24] = target: T1, human GPC3 on HepG2 cells; experiment: FACS, periplasmic extract 1:5 + anti-c-myc + GAM-APC on HepG2, well E4; same on A-431: 760.97
[25] = target: T2, human GPC3 recombinant protein; experiment: SPR (Biacore), summary table; Chi2 0.207; Profile 'Very good'
Method: as §2

T2 sequence (P51654 25-559 limits assumed): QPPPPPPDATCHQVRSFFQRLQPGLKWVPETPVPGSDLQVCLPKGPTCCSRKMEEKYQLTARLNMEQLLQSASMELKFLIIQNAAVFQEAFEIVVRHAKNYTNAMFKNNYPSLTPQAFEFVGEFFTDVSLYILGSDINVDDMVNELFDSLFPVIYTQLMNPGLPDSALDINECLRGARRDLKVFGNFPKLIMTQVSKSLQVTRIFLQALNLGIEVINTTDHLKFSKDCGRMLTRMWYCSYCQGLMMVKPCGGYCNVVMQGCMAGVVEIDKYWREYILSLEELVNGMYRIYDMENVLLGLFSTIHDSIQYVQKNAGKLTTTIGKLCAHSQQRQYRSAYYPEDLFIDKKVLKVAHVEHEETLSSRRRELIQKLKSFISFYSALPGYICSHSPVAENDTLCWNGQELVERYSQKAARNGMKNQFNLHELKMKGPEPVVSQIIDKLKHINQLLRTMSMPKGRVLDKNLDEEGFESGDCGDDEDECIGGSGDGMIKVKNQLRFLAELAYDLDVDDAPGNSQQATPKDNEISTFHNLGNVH
T1 sequence (P51654 25-554 limits assumed): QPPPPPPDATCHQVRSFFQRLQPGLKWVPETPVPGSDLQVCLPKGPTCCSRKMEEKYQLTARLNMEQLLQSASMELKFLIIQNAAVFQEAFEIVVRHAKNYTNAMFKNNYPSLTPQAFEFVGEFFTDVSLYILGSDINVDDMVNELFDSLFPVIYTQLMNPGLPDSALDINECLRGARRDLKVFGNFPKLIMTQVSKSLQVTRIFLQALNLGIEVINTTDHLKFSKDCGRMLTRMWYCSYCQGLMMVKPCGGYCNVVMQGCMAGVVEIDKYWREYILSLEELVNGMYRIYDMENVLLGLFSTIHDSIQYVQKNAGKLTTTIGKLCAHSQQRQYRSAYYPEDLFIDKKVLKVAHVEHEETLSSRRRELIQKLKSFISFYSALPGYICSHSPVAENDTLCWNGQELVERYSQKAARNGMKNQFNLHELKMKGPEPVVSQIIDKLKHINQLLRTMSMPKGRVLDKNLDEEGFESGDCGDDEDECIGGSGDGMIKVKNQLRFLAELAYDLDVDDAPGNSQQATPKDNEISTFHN

% of Binding [1]: 35.7%
koff [2]: 0.00493 s⁻¹
Mean FL4-A [3]: 931
% of Binding [4]: 1.43%
Mean FL2-A [5]: 11100
B1: VH29 (VHH)
VHH: QVQLVESGGGLVQPGGSLRLSCAASGFTFSSYAMSWVRQAPGKEPEWVSSISGGGSSTYYADSLKGRFTISRDNSKNTLYLQMNSLRAEDTAVYYCSRDPRFGEPPFDYWGQGTLVTVSS
notes: also called VHH29

koff [6]: 0.00387 s⁻¹
B2: VH27 (VHH)
VHH: EVQLVESGGGLVQPGGSLRLSCAASGFTFSSYAMSWVRQAPGKEPEWVSSISGGGSSTYYADSLKGRFTISRDNSKNTLYLQMNSLRAEDTAVYYCSRDPRFGEPPFDYWGQGTLVTVSS
notes: also called VHH27

koff [7]: 0.00566 s⁻¹
B3: VH36 (VHH)
VHH: QVQLVESGGGLVQPGGSLRLSCAASGFTFSSYAMSWVRQAPGKEPEWVSSISGGGSSTYYADSLKGRFTISRDNSKNTLYLQMNSLRAEDTAVYYCSRDPRFGEPPFDYWGQGTTVTVSS
notes: also called VHH36

koff [8]: 0.00379 s⁻¹
B4: VH26 (VHH)
VHH: EVQLVESGGGLVQPGGSLRLSCAASGFTFSSYAMSWVRQAPGKEPEWISSISGSGSSTYYADSLKGRFTISRDNSKNTLYLQMNSLRAEDTAVYYCSKDPRFGEPPFDYWGQGTLVTVSS
notes: also called VHH26

koff [9]: 0.00269 s⁻¹
B5: VH21 (VHH)
VHH: QVQLVESGGGLVQPGGSLRLSCAASGFTFSSYAMSWVRQAPGKEPEWISSISGSGSSTYYADSLKGRFTISRDNSKNTLYLQMNSLRAEDTAVYYCSKDPRFGEPPFDYWGQGTLVTVSS
notes: also called VHH21

binding result [10]: binds
B6: anti-GPC3 VHH-His tagged domain VHH19 (VHH)
VHH: EEQLVESGGGLVQPGGSLRLSCAASGFTFSSYAMSWVRQAPGKEPEWVSSISGGGGSTYYADSLKGRFTISRDNSKNTLYLQMNSLRAEDTAVYYCARDPRYGEPPFDYRCQGTTVTVSS
notes: Produced from a mammalian expression vector as a His fusion; not shown: His tag

Kd [11]: 4.29 nM
Ka [12]: 1.66e+08 M⁻¹
Kd [12]: 6.01 nM
koff [12]: 0.00167 s⁻¹
kon [12]: 278000 M⁻¹ s⁻¹
koff [13]: 0.00247 s⁻¹
B7: anti-GPC3 VHH-His tagged domain VHH1 (VHH)
VHH: EVQLVESGGGLVQPGGSLRLSCAASGFTFSSYAMSWVRQAPGKEPEWVSSISGGGTSTYYADSLEGRFTISRDNSKNTLYLQMNSLRAEDTAVYYCSKDPRFGEPPFDYWGQGTTVTVSS
notes: as for B6

Ka [14]: 1.46e+08 M⁻¹
Kd [14]: 6.84 nM
koff [14]: 0.00262 s⁻¹
kon [14]: 383000 M⁻¹ s⁻¹
Kd [15]: 6.84 nM
koff [16]: 0.00457 s⁻¹
B8: anti-GPC3 VHH-His tagged domain VHH7 (VHH)
VHH: EVQLVESGGGLVQPGGSLRLSCAASGFTFSSYAMSWVRQAPGKEPEWVSSISGGGSSTYYADSLKGRFTISRDNSKNTLYLQMNSLRAEDTAVYYCSRDPRFGEPPFDYWGQGTTVTVSS
notes: as for B6

binding result [17]: no binding
koff [18]: 0.0948 s⁻¹
B9: VH32 (VHH)
VHH: QVQLVESGGGLVQPGGSLRLSCAASGFTFSSFAMSWVRQAPGKGLEWVSAISGSGGRTHYADSVKGRFTISRDNSKNTLYLQMNSLRAEDTAVYYCAKEALTGVFDYWGQGTLVTVSS
notes: also called VHH32

koff [19]: 0.00154 s⁻¹
Ka [20]: 3.09e+08 M⁻¹
Kd [20]: 3.23 nM
koff [20]: 0.00141 s⁻¹
kon [20]: 435000 M⁻¹ s⁻¹
% of Binding [21]: 0.27%
% of Binding [22]: 60.1%
Mean FL2-A [23]: 18600
Mean FL4-A [24]: 796
Kd [25]: 3.23 nM
B10: anti-GPC3 VHH-His tagged domain VHH3 (VHH)
VHH: EVQLVESGGGVVQPGRSLRLSCAASGFTFSNYLMQWVRQAPGKGLVWLSNINSDGSSTDYADSVKGRFTISRDNAKNTLYLQMNSLRAEDTAVYYCRVGAFDYWGQGTLVTVSS
notes: as for B6
